The values below come from patent US20240076343A1 (CEPHALON, published 2024).

Where a chain is given by its changes, count along the chain named.

The target in assay [1] is T1, recombinant His-tagged cynomolgus PD-1 (Acro Biosystems) (cynomolgus, UniProt B0LAJ3 25-170).
T1 construct: His-tagged; also called Cyno PD-1; not shown: His tag (and any linker) of the Acro Biosystems product
Nature of the assay: SPR Carterra LSA.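 Note: antibodies or fusion proteins amine-coupled on an HC30M chip, soluble His-tagged human or cynomolgus PD-1 titrated over them, non-regenerative kinetics, constants fitted from titration curves.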

In assay [2] the target is T2, recombinant His-tagged human PD-1 (Acro Biosystems) (human, UniProt Q15116 25-167).
T2 construct: His-tagged; also called hPD-1
T2 sequence (Q15116 25-167 limits assumed): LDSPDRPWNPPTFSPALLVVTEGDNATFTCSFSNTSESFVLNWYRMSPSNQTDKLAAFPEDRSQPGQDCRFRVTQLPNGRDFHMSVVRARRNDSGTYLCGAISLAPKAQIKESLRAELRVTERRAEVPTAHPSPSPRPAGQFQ
Nature of the assay: SPR Carterra LSA.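 Note: antibodies or fusion proteins amine-coupled on an HC30M chip, soluble His-tagged human or cynomolgus PD-1 titrated over them, non-regenerative kinetics, constants fitted from titration curves.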
Protocol: Surface plasmon resonance binding analysis was performed using a high-throughput SPR Carterra® LSA™ to determine binding affinities of anti-hPD-1 antibodies and anti-hPD-1-attenuated hIL-2 fusion proteins. Proteins were diluted to 2 or 10 μg/mL in 10 mM sodium acetate pH 4.5 containing 0.01% Tween-20 and coupled to a HC30M (Carterra Bio) chip using sulpho-N-hydroxysuccinimide/1-ethyl-3-(3-dimethylamino) propyl carbodiimide (sulpho-NHS/EDC) coupling chemistry and blocked with ethanolamine. A non-regenerative kinetic coupling process was used to determine binding kinetics to commercially sourced recombinant His-tagged human PD-1 and His-tagged cynomolgus PD-1 (Acro Biosystems).
The association constants (kₐ), dissociation constants (kd), and equilibrium constants (KD) of various anti-hPD-1 antibodies and anti-hPD-1 antibody-attenuated hIL-2 fusion proteins binding to recombinant human or cynomolgus PD-1 proteins was determined from the titration curves and the Carterra Kinetics software. The maximal feasible SPR signal generated (Rₘₐₓ) and residual standard deviation (Res SD) was also calculated.

In assay [3] the target is human PD-1 on Jurkat Effector cells of the PD-1/PD-L1 blockade bioassay (Promega, Cat #J1255) (human, UniProt Q15116 25-288). Nature of the assay: cell-based or functional assay.
human PD-1 on Jurkat Effector cells of the PD-1/PD-L1 blockade bioassay (Promega, Cat #J1255), sequence (Q15116 25-288): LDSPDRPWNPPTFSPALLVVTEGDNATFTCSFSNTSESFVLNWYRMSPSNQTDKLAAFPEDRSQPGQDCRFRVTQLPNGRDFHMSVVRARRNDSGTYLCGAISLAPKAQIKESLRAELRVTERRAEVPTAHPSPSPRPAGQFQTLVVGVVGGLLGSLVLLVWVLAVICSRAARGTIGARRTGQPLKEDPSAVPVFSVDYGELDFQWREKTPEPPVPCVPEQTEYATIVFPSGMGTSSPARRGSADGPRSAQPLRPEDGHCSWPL

T1 sequence (B0LAJ3 entry or part of it limits assumed): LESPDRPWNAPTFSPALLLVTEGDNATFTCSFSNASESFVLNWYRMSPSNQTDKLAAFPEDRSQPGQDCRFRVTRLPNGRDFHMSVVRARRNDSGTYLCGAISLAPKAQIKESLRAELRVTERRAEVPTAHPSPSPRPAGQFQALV

B1: Anti-PD-1 clone J110 hIgG1 (antibody, V domains shown)
VH: DVQLQESGPGLVKPSQSLSLTCTVTGHSITSDYAWNWIRQFPGDKLEWMGYISYSGYTTYNPSLKSRVSITRDTSKNQFFLQLNSVTTEDTATYFCARDLDYGPWFAYWGQGTLVTVSA
VL: DIQMTQSPASLSASVGETVTLTCRASENIHNYLAWYQQKQGKSPQLLVYNVKTLADGVPSRFSGSGSGTQYSLKINSLQPEDFGSYYCQHFWSSPWTFGGGTKVEIKR
The Kd is the constant that tells how readily two partners part at equilibrium. One may read the koff as the first-order rate constant of dissociation. As usually defined, the kon is the rate constant with which the complex forms. On to B1, for which, in assay [1], the Kd came out at 1200 nM, the dissociation rate constant (koff) came out at 0.05 s⁻¹ and the on-rate (kon) was determined as 41000 M⁻¹ s⁻¹. Besides, in assay [2], the Kd amounted to 10 nM, the off-rate (koff) was 0.001 s⁻¹ and the on-rate constant (kon) stood at 100000 M⁻¹ s⁻¹.

B2: 2A3.H7-hIgG4 (antibody, V domains shown)
VH: EVQLLESGGGLVQPGGSLRLSCAASGFTFKDYCMTWVRQAPGKGLEWVSAIVYSGGSTYYADSVKGRFTISRDNSKNTLYLQMNNLRAEDTAVYYCAKYTRASYFYDAMDVWGQGTTVTVSS
VL: EIVLTQSPGTLSLSPGERATLSCRASQSIGRSFLAWYQQKPGQAPRLLIYDASTRAADIPARFSGSGSGTDFTLTISSLEPEDFAVYYCQQYYDWPPLSFGGGTKVEIKR
Turning to B2, in assay [3], the “luminescence (RLU), PD-1/PD-L1 blockade bioassay” value (“luminescence (RLU)” below) was roughly 3000 RLU.

B3: 1H9-hIgG4 (antibody, V domains shown)
VH: B2 VH with A23V, A24G, T28N, F29L, N85S, A102G
VL: B2 VL with A61D, S77N, S78R, S99T
With B3, the “luminescence (RLU)” value in assay [3] was roughly 3000 RLU.

B4: 1D5-hIgG4 (antibody, V domains shown)
VH: B2 VH with A23V, A24G, T28N, N85S, A102G
VL: B2 VL with A57T, A61D, D71E, E80Q, P81S, S99T
Consider B4, for which the “luminescence (RLU)” value in assay [3] was roughly 3000 RLU.

B5: OMC476pG10-hIgG4 (antibody, V domains shown)
VH: DVQLVESGGGVVRPGGSLRLSCAASGFTFSIYAMSWVRQAPGEGLEWVSHISASGGSTYYADSVKGRFAISRDNSKNTLYLQMNSLRAEDTAVYYCTTNLGSDYWGLGTLVTVSS
VL: QSVLTQPPSASGTPGQRVTISCSGSYSDIGTNYVYWYQQLPGTAPKLLIFATDRRPSGVPDRFSGSKSGTSASLAISGLQSEDEADYYCGTWDDSLNVWVFGGGTKLTVLG
On to B5, for which, in assay [1], the Kd came out at 487 nM, the off-rate constant (koff) came out at 0.06 s⁻¹ and the kon turned out to be 120000 M⁻¹ s⁻¹. Further, in assay [2], the Kd was 44 nM, the koff was 0.0041 s⁻¹ and the kon amounted to 93000 M⁻¹ s⁻¹.

B6: OMC476pH10-hIgG4 (antibody, V domains shown)
VH: B5 VH with M34V
VL: B5 VL
Take B6: in assay [1], the Kd is 480 nM, the koff amounted to 0.059 s⁻¹ and the on-rate (kon) was determined as 120000 M⁻¹ s⁻¹. For the same molecule, in assay [2], the Kd is 64 nM, the off-rate constant (koff) worked out at 0.0065 s⁻¹ and the kon stood at 100000 M⁻¹ s⁻¹.

B7: 2H7-hIgG4-LE (antibody)
heavy: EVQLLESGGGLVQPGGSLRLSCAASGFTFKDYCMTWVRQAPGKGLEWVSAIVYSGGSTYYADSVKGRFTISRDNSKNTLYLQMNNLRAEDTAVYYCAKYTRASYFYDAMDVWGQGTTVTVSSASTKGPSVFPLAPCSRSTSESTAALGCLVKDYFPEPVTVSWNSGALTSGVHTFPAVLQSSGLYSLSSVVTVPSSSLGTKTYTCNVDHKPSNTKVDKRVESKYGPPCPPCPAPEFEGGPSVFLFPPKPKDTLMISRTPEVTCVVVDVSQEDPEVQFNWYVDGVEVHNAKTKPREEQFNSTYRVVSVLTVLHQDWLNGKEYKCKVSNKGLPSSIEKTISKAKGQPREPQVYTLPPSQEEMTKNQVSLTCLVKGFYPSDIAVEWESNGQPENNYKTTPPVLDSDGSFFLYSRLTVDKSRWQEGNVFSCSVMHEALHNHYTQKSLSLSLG
light: EIVLTQSPGTLSLSPGERATLSCRASQSIGKSFLAWYQQKPGQAPRLLIYDASTRAADIPARFSGSGSGTDFTLTISSLEPEDFAVYYCQQYYDWPPLSFGGGTKVEIKRTVAAPSVFIFPPSDEQLKSGTASVVCLLNNFYPREAKVQWKVDNALQSGNSQESVTEQDSKDSTYSLSSTLTLSKADYEKHKVYACEVTHQGLSSPVTKSFNRGEC
In the case of B7, in assay [1], the dissociation constant Kd worked out at 7.1 nM, the koff turned out to be 0.001 s⁻¹ and the kon was determined as 140000 M⁻¹ s⁻¹. In addition, in assay [2], the Kd amounted to 3.1 nM, the dissociation rate constant (koff) was determined as 0.00082 s⁻¹ and the kon worked out at 260000 M⁻¹ s⁻¹.

B8: 2H7-hIgG4-LAGA (antibody)
heavy: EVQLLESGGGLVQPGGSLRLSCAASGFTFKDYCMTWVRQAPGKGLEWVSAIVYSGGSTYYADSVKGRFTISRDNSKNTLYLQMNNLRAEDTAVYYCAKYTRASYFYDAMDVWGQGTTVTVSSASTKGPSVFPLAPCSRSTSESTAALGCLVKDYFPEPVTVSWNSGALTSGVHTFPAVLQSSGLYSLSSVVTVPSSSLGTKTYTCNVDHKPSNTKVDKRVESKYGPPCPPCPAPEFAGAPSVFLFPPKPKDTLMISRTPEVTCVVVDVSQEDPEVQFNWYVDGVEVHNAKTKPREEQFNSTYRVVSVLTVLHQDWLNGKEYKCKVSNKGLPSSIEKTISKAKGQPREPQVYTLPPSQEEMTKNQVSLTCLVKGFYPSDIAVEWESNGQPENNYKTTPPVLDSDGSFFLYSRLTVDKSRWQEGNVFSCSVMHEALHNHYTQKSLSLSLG
light: B7 light
Consider B8, for which, in assay [1], the Kd amounted to 12 nM, the dissociation rate constant (koff) was 0.0011 s⁻¹ and the kon is 91000 M⁻¹ s⁻¹. In assay [2], the Kd was determined as 5.3 nM, the dissociation rate constant (koff) was determined as 0.00091 s⁻¹ and the association rate constant (kon) was found to be 170000 M⁻¹ s⁻¹.

B9: OMC.2.C6-hIgG4 (antibody, V domains shown)
VH: EVQLLESGGGLVQPGGSLRLSCTASGFTFSSYEMQWVRQAPGKGLEWVLGITSSSSHIFYADSVKGRFTVSRDNSKNTLYLQMNSLRAEDTAVYYCTKDLNSYYGLDVWGQGTTVTVSS
VL: QSVMTQPPSASGTPGQRVTISCSGSTSNLGNNYVSWYQHLPGTAPKLLIYGNDQRPSGVPDRFSGSKSGTSASLAISGLQSDDEADYYCSSWDASLNVWVFGGGTKLTVLG
Regarding B9, the “luminescence (RLU)” value in assay [3] is roughly 3000 RLU.

B10: OMC.2.C6-hIgG4 (antibody, V domains shown)
VH: B9 VH
VL: B9 VL
For B10, in assay [1], the dissociation constant Kd was found to be 13 nM, the off-rate constant (koff) is 0.00074 s⁻¹ and the association rate constant (kon) was 55000 M⁻¹ s⁻¹. In addition, in assay [2], the equilibrium dissociation constant (Kd) turned out to be 12 nM, the off-rate (koff) amounted to 0.00066 s⁻¹ and the kon is 57000 M⁻¹ s⁻¹.

B11: A2-hIgG4 (antibody, V domains shown)
VH: DVQLVESGGGLVQPGGSLRLSCAASGFTFDISAMSWVRQAPGKGLEWVSTISGSAYSTYYADSVKGRFTISRDNSKSTLYLQMNSLRAEDTAVYYCAREIFSDYWGLGTLVTVSS
VL: QSVLTQPPSASGTPGQRVTISCSGSTSNIGRESVYWYQQLPGTAPKLLIYSNVQRPSGAPNRFSGSKSGTSASLAISGLQSEDEADYYCGTWDDSLNGWVFGGGTKLTVLG
Turning to B11, in assay [1], the equilibrium dissociation constant (Kd) is 589 nM, the koff is 0.04 s⁻¹ and the kon amounted to 68000 M⁻¹ s⁻¹. Moreover, in assay [2], the Kd stood at 36 nM, the off-rate (koff) was 0.0013 s⁻¹ and the on-rate (kon) came out at 37000 M⁻¹ s⁻¹.

B12: G12-hIgG4 (antibody, V domains shown)
VH: DSLVESGGGLVQPGGSLRLSCAASGFTFDISAMSWVRQAPGKGLEWVSTISGSAYSTYYADSVKGRFTISRDNSKSTLYLQMNSLRAEDTAVYYCAREIFSDYWGLGTLVTVSS
VL: B11 VL with S51L, V53S, A59V, N61D, E84V
With B12, in assay [1], the Kd was 754 nM, the koff worked out at 0.065 s⁻¹ and the on-rate constant (kon) came out at 86000 M⁻¹ s⁻¹. Besides, in assay [2], the dissociation constant (Kd) is 50 nM, the koff came to 0.0026 s⁻¹ and the kon is 53000 M⁻¹ s⁻¹.

B13: OMC476pE4-hIgG4 (antibody, V domains shown)
VH: DVQLVESGGGVVRPGESLRLSCAASGFTFSTDAMGWVRQAPGEGLEWVSLISGSGYSTYYADSVKGRFTISRDNSKNTLYLQMNSLTAEDTAVYYCAKNSLAFFDYWGLGTLVTVSS
VL: B11 VL with S25G, T26S, Y35N, N52T, V53D, Q54R, A59V, N61D, D94N, S95D
Regarding B13, in assay [1], the Kd was 331 nM, the off-rate (koff) was 0.035 s⁻¹ and the kon turned out to be 100000 M⁻¹ s⁻¹. Moreover, in assay [2], the Kd is 11 nM, the off-rate constant (koff) stood at 0.00088 s⁻¹ and the kon was 79000 M⁻¹ s⁻¹.

B14: D12-hIgG4 (antibody, V domains shown)
VH: B11 VH
VL: B11 VL with S25N, A59V, N61D
Turning to B14, in assay [1], the Kd was found to be 272 nM, the koff came to 0.016 s⁻¹ and the on-rate (kon) is 59000 M⁻¹ s⁻¹. For the same molecule, in assay [2], the Kd amounted to 8.1 nM, the koff was 0.00046 s⁻¹ and the kon stood at 57000 M⁻¹ s⁻¹.

B15: Abz1mod-hIgG4 (antibody, V domains shown)
VH: QVQLVQSGSELKKPGASVKVSCKASGYTFTSYAMHWVRQAPGQGLEWMGYISPFTGRATYAQGFTGRFVFSLDTSVSTAYLQISSLKAEDTAVYYCARDYDYRYYYAMDYWGQGTTVTVSS
VL: EIVLTQSPDFQSVTPKEKVTITCRASQSIPPQFLHWYQQKPDQSPKLLIKAASQRASGVPSRFSGSGSGTDFTLTINSLEAEDAATYYCHQFHSSPLTFGGGTKLEIKR
With B15, in assay [1], the dissociation constant Kd was found to be 3.7 nM, the koff was 0.00062 s⁻¹ and the kon turned out to be 170000 M⁻¹ s⁻¹. Also, in assay [2], the equilibrium dissociation constant (Kd) is 0.426 nM, the koff was 6e-05 s⁻¹ and the kon stood at 140000 M⁻¹ s⁻¹.

B16: OMC.1.B6-hIgG4 (antibody, V domains shown)
VH: EVQLLESGGGLVQPGGSLRLSCAASGFTFSSNYMSWVRQAPGKGLEWVSAISSSGGTIFYADSVKGRFTISRDNSKNTLYLQMNSLRAEDTAVYYCAKHKWNAVYYDGMDVWGQGTTVTVSS
VL: QSVLTQPPSASGTPGQRVTISCSGSNSNIGRNLVNWYQQLPGTAPKLLIYTIDQRPSGVPDRFSGSKSGTSASLVISGLQSEDEADYYCAAWDGSLNAWVFGGGTKLTVLG
With B16, in assay [3], the “luminescence (RLU)” value was roughly 3000 RLU.

B17: OMC.1.B6-hIgG4 (antibody, V domains shown)
VH: B16 VH
VL: B16 VL
On to B17, for which, in assay [1], the Kd worked out at 51 nM, the off-rate constant (koff) stood at 0.0044 s⁻¹ and the kon was 88000 M⁻¹ s⁻¹. Besides, in assay [2], the Kd amounted to 52 nM, the koff was 0.004 s⁻¹ and the association rate constant (kon) was determined as 77000 M⁻¹ s⁻¹.

B18: OMC.1.D6-hIgG4 (antibody, V domains shown)
VH: B16 VH with S31D, N32Y, T69I, A103D, G108A
VL: B16 VL with I52V, V75A, Q80A, G94S, A98S
As for B18, in assay [1], the Kd was 694 nM, the koff was 0.04 s⁻¹ and the kon came out at 58000 M⁻¹ s⁻¹. In assay [2], the Kd worked out at 42 nM, the koff was 0.0017 s⁻¹ and the kon stood at 41000 M⁻¹ s⁻¹.

B19: OMC.1.D6-hIgG4 (antibody, V domains shown)
VH: B16 VH with S31D, N32Y, T69I, A103D, G108A
VL: B16 VL with I52V, V75A, Q80A, G94S, A98S
For B19, the “luminescence (RLU)” value in assay [3] was roughly 3000 RLU.
